This is an account of results in patent US20190119366A1 (ADC THERAPEUTICS, published 2019).

The target in assay [1] is T1, recombinant human KAAG1 (Kidney associated antigen 1) (human, UniProt Q9UBP8 1-84).
T1 construct: also called KAAG1 protein
T1 sequence: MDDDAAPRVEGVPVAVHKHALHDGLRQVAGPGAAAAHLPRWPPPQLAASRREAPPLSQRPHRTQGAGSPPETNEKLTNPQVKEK
In words: not described; list of antibodies generated.

In assay [2] the target is T2, KAAG1 on the surface of cancer cells (human, UniProt Q9UBP8 1-84).
T2 construct: Endogenous KAAG1 of human cancer cell lines and of tumor tissue sections; also called KAAG1 antigen
T2 sequence: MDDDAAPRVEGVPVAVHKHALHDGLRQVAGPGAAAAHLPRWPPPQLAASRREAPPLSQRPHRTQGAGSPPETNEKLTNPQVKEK
As to the kind of experiment: flow cytometry, MDA-231 cells. (In general: A flow cytometer gives signals particle by particle.)

In assay [3] the target is T1, recombinant human KAAG1 (Kidney …). In words: epitope mapping studies (method not described).
For assay [4] the target is unchanged. As to the kind of experiment: SPR (BioRad ProteOn XPR36): antibody captured on an anti-human IgG Fc surface, KAAG1 injected as analyte, 1:1 Langmuir fit. The method, then:
(§1) Immediately after the activation, a 13 μg/mL solution of anti-human IgG Fc fragment specific in 10 mM NaOAc pH 4.5 was injected in the analyte direction at a flow rate of 25 μL/min until approximately 8000 resonance units (RUs) were immobilized. Remaining active groups were quenched by a 300 s injection of 1M ethanolamine at 30 μL/min in the analyte direction, and this also ensures mock-activated interspots are created for blank referencing. The screening of the 3A4 variants for binding to KAAG1 occurred in two steps: an indirect capture of 3A4 variants from cell supernatant onto the anti-human IgG Fc fragment specific surface in the ligand direction(vertical) followed by a KAAG1 injection in the analyte direction. Firstly, one buffer injection for 30 s at 100 uL/min in the ligand direction was used to stabilize the baseline. […] Four to five 3A4 variants along with wild-type 3A4 were simultaneously injected in individual ligand channels for 240 s at flow 25 μL/min. […] The first ligand channel was left empty to use as a blank control if required. This 3A4 capture step was immediately followed by two buffer injections in the analyte direction to stabilize the baseline, and then the gel filtration purified KAAG1 was injected. For a typical screen, five KAAG1 concentrations (8, 2.66, 0.89, 0.29, and 0.098 nM) and buffer control were simultaneously injected in individual analyte channels at 50 μL/min for 120 s with a 600s dissociation phase, resulting in a set of binding sensorgrams with a buffer reference for each of the captured 3A4 variants. The anti-human IgG Fc fragment specific—3A4 complexes were regenerated by a 18 s pulse of 0.85% phosphoric acid for 18 s at 100 μL/min to prepare the anti-human IgG Fc fragment specific surface for the next injection cycle. Sensorgrams were aligned and double-referenced using the buffer blank injection and interspots, and the resulting sensorgrams were analyzed using ProteOn Manager software v3.0.

Assay [5] shares this target. As to the kind of experiment: SPR (BioRad ProteOn XPR36); fold difference of KD relative to LcHc. How it is done:
as §1

Assay [6] shares this target. In words: SPR (ProteOn XPR36), antibody captured on anti-human IgG Fc, KAAG1 as analyte. The method, then:
as §1

B1: 3E10 anti-KAAG1 antibody (antibody, V domains shown)
VH: EVQLQQSGPELVKPGASVKISCKASGDTFTDYYMNWVKQSHGKSLEWIGDINPNYGGITYNQKFKGKATLTVDTSSSTAYMELRGLTSEDSAVYYCQAYYRNSDYWGQGTTLTVSS
VL: DIVMTQAAPSVPVTPGESVSISCRSSKSLLHSNGNTYLYWFLQRPGQSPQLLIYRMSNLASGVPDRFSGSGSGTAFTLRISRVEAEDVGVYYCMQHLEYPYTFGGGTKLEIK
notes: Variable regions only; Isolated from a Fab library
As to B1, in assay [1], the binding result was “binds”.

B2: 3A4-ADC1 (chimeric 3A4 conjugated to a cytotoxic drug via a cleavable peptide linker) (antibody, human IgG1, kappa, V domains shown)
VH: QIQLVQSGPEMVKPGASVKMSCKASGYTFTDDYMSWVKQSHGKSLEWIGDINPYNGDTNYNQKFKGKAILTVDKSSSTAYMQLNSLTSEDSAVYYCARDPGAMDYWGQGTSVTVSS
VL: DVVMTQTPLSLAVSLGDQASISCRSSQSLLHSNGNTYLEWYLQKPGQSPKLLIHTVSNRFSGVPDRFSGSGSGTDFTLKISRVEAEDLGVYYCFQGSHVPLTFGAGTRLELKR
modifications: cytotoxic drug conjugated via a highly stable peptide linker that is selectively cleaved by lysosomal enzymes; chain and residues of attachment not stated
In the case of B2, the binding result in assay [2] is “binds”.

B3: 3A4-ADC2 (chimeric 3A4 conjugated to an anti-mitotic drug via a non-cleavable linker) (antibody, human IgG1, kappa, V domains shown)
VH: QIQLVQSGPEMVKPGASVKMSCKASGYTFTDDYMSWVKQSHGKSLEWIGDINPYNGDTNYNQKFKGKAILTVDKSSSTAYMQLNSLTSEDSAVYYCARDPGAMDYWGQGTSVTVSS
VL: DVVMTQTPLSLAVSLGDQASISCRSSQSLLHSNGNTYLEWYLQKPGQSPKLLIHTVSNRFSGVPDRFSGSGSGTDFTLKISRVEAEDLGVYYCFQGSHVPLTFGAGTRLELKR
modifications: anti-mitotic drug conjugated via a non-cleavable linker; chain and residues of attachment not stated
Consider B3, for which the binding result in assay [2] was “binds”.

B4: 3G10 anti-KAAG1 antibody (antibody, V domains shown)
VH: EIQLQQSGPELVKPGASVKISCKASGYTFTDNYMNWVKQSHGKSLEWIGDINPYYGTTTYNQKFKGKATLTVDKSSRTAYMELRGLTSEDSAVYYCARDDWFDYWGQGTLVTVSA
VL: DVLMTQTPRSLSVSLGDQASISCRSSQSLLHSNGNTYLEWYLQKPGQPPKVLIYKVSNRFSGVPDRFSGSGSGTDFTLKISGVEAEDLGVYYCFQGSHVPLTFGAGTKLELK
For the molecule B4, in assay [3], the binding result is recorded as “binds”.

B5: 3A9 anti-KAAG1 antibody (antibody, V domains shown)
VH: QVQVQQPGAELVRPGASVTLSCKASGYIFTDYEVHWVRQRPVHGLEWIGVIDPETGDTAYNQKFKGKATLTADKSSSTAYMELSSLTAEDSAVYYCIGYADYWGQGTTLTVSS
VL: DIVMTQSPSSLAMSLGQKVTMSCKSSQSLLNSNNQLNYLAWYQQKPGQSPKLLVYFASTRKSGVPDRFIGSGSGTDFTLTITSVQAEDLADYFCQQHFNTPLTFGAGTKLELK
notes: as for B1
For B5, the binding result in assay [1] is reported as “binds”.

B6: humanized 3A4 antibody Lh1Hh2 (antibody, human IgG1, kappa, V domains shown)
VH: QIQLVQSGAEVKKPGASVKVSCKASGYTFTDDYMSWVRQAPGQGLEWMGDINPYNGDTNYNQKFKGRVTITADKSTSTAYMELSSLRSEDTAVYYCARDPGAMDYWGQGTLVTVSS
VL: DIVMTQTPLSLPVTPGEPASISCRSSQSLLHSNGNTYLEWYLQKPGQSPQLLIYTVSNRFSGVPDRFSGSGSGTDFTLKISRVEAEDVGVYYCFQGSHVPLTFGQGTKLEIKR
notes: Human IgG1/kappa
As usually defined, the Kd is a measure of binding affinity in units of concentration. A word on the koff: it is the first-order rate constant of dissociation. The kon is a measure of how fast the partners come together. Regarding B6, in assay [4], the Kd is 0.211 nM, the koff was determined as 0.00119 s⁻¹ and the association rate constant (kon) stood at 5.65e+06 M⁻¹ s⁻¹. The Fold diff. in assay [5] stood at 13.2.

B7: humanized 3A4 antibody Lh1Hh4 (antibody, human IgG1, kappa, V domains shown)
VH: QIQLVQSGAEVKKPGASVKVSCKASGYTFTDDYMSWVKQAPGQGLEWIGDINPYNGDTNYNQKFKGKATLTVDKSTSTAYMELSSLRSEDTAVYYCARDPGAMDYWGQGTLVTVSS
VL: DIVMTQTPLSLPVTPGEPASISCRSSQSLLHSNGNTYLEWYLQKPGQSPQLLIYTVSNRFSGVPDRFSGSGSGTDFTLKISRVEAEDVGVYYCFQGSHVPLTFGQGTKLEIKR
notes: Human IgG1/kappa
Turning to B7, in assay [4], the Kd was 0.149 nM, the koff amounted to 0.000764 s⁻¹ and the kon worked out at 5.14e+06 M⁻¹ s⁻¹. The Fold diff. in assay [5] amounted to 9.3.

B8: humanized 3A4 antibody Lh2Hh2 (antibody, human IgG1, kappa, V domains shown)
VH: QIQLVQSGAEVKKPGASVKVSCKASGYTFTDDYMSWVRQAPGQGLEWMGDINPYNGDTNYNQKFKGRVTITADKSTSTAYMELSSLRSEDTAVYYCARDPGAMDYWGQGTLVTVSS
VL: DVVMTQTPLSLPVTPGEPASISCRSSQSLLHSNGNTYLEWYLQKPGQSPKLLIYTVSNRFSGVPDRFSGSGSGTDFTLKISRVEAEDVGVYYCFQGSHVPLTFGQGTKLEIKR
notes: Human IgG1/kappa
As for B8, in assay [4], the dissociation constant (Kd) is 0.245 nM, the koff worked out at 0.00181 s⁻¹ and the kon amounted to 7.4e+06 M⁻¹ s⁻¹. For the same molecule, in assay [5], the Fold diff. turned out to be 15.3.

B9: humanized 3A4 antibody Lh2Hh3 (antibody, human IgG1, kappa, V domains shown)
VH: QIQLVQSGAEVKKPGASVKVSCKASGYTFTDDYMSWVRQAPGQGLEWIGDINPYNGDTNYNQKFKGRATLTVDKSTSTAYMELSSLRSEDTAVYYCARDPGAMDYWGQGTLVTVSS
VL: DVVMTQTPLSLPVTPGEPASISCRSSQSLLHSNGNTYLEWYLQKPGQSPKLLIYTVSNRFSGVPDRFSGSGSGTDFTLKISRVEAEDVGVYYCFQGSHVPLTFGQGTKLEIKR
notes: Human IgG1/kappa
With B9, in assay [4], the Kd was 0.228 nM, the off-rate constant (koff) amounted to 0.00102 s⁻¹ and the kon was found to be 4.46e+06 M⁻¹ s⁻¹. In addition, the Fold diff. in assay [5] is 14.3.

B10: humanized 3A4 antibody Lh1Hh3 (antibody, human IgG1, kappa, V domains shown)
VH: QIQLVQSGAEVKKPGASVKVSCKASGYTFTDDYMSWVRQAPGQGLEWIGDINPYNGDTNYNQKFKGRATLTVDKSTSTAYMELSSLRSEDTAVYYCARDPGAMDYWGQGTLVTVSS
VL: DIVMTQTPLSLPVTPGEPASISCRSSQSLLHSNGNTYLEWYLQKPGQSPQLLIYTVSNRFSGVPDRFSGSGSGTDFTLKISRVEAEDVGVYYCFQGSHVPLTFGQGTKLEIKR
notes: Human IgG1/kappa
As for B10, in assay [4], the Kd came to 0.149 nM, the off-rate (koff) was 0.00096 s⁻¹ and the kon was 6.46e+06 M⁻¹ s⁻¹. Besides, the Fold diff. in assay [5] turned out to be 9.3.

B11: humanized 3A4 antibody Lh1Hh1 (antibody, human IgG1, kappa, V domains shown)
VH: QVQLVQSGAEVKKPGASVKVSCKASGYTFTDDYMSWVRQAPGQGLEWMGDINPYNGDTNYNQKFKGRVTITADTSTSTAYMELSSLRSEDTAVYYCARDPGAMDYWGQGTLVTVSS
VL: DIVMTQTPLSLPVTPGEPASISCRSSQSLLHSNGNTYLEWYLQKPGQSPQLLIYTVSNRFSGVPDRFSGSGSGTDFTLKISRVEAEDVGVYYCFQGSHVPLTFGQGTKLEIKR
notes: Human IgG1/kappa; 100% humanized frameworks; also called H1 L1; H1L1
B11: in assay [6], the Kd was 0.47 nM; the “fold difference in binding affinity between the worse variant (H1 L1) and the best variant (H4L2)” value came to 4 fold. Further, in assay [4], the Kd stood at 0.474 nM, the koff is 0.00328 s⁻¹ and the kon is 6.93e+06 M⁻¹ s⁻¹. The Fold diff. in assay [5] turned out to be 29.6.

B12: humanized 3A4 antibody Lh2Hh1 (antibody, human IgG1, kappa, V domains shown)
VH: QVQLVQSGAEVKKPGASVKVSCKASGYTFTDDYMSWVRQAPGQGLEWMGDINPYNGDTNYNQKFKGRVTITADTSTSTAYMELSSLRSEDTAVYYCARDPGAMDYWGQGTLVTVSS
VL: DVVMTQTPLSLPVTPGEPASISCRSSQSLLHSNGNTYLEWYLQKPGQSPKLLIYTVSNRFSGVPDRFSGSGSGTDFTLKISRVEAEDVGVYYCFQGSHVPLTFGQGTKLEIKR
notes: Human IgG1/kappa
As for B12, in assay [4], the Kd came to 0.341 nM, the koff was determined as 0.00237 s⁻¹ and the kon is 6.97e+06 M⁻¹ s⁻¹. Besides, the Fold diff. in assay [5] was 21.3.

B13: humanized 3A4 antibody Lh2Hh4 (antibody, human IgG1, kappa, V domains shown)
VH: QIQLVQSGAEVKKPGASVKVSCKASGYTFTDDYMSWVKQAPGQGLEWIGDINPYNGDTNYNQKFKGKATLTVDKSTSTAYMELSSLRSEDTAVYYCARDPGAMDYWGQGTLVTVSS
VL: DVVMTQTPLSLPVTPGEPASISCRSSQSLLHSNGNTYLEWYLQKPGQSPKLLIYTVSNRFSGVPDRFSGSGSGTDFTLKISRVEAEDVGVYYCFQGSHVPLTFGQGTKLEIKR
notes: Human IgG1/kappa; 10 mouse framework residues retained; also called H4L2
B13: in assay [6], the Kd worked out at 0.1 nM and the “fold weaker affinity than the murine (LcHc)” value is ~6 fold. In assay [4], the Kd turned out to be 0.103 nM, the koff turned out to be 0.00047 s⁻¹ and the kon is 4.57e+06 M⁻¹ s⁻¹. In assay [5], the Fold diff. was 6.4.
